Columns and labels:
RaaS [1] = molecular target: T1, RaaS (UniProt O86312); assay: fluorescence anisotropy; settings: anisotropy: 50 mM Tris-HCl pH 8.5, 150 mM NaCl, temperature not stated
T1 sequence: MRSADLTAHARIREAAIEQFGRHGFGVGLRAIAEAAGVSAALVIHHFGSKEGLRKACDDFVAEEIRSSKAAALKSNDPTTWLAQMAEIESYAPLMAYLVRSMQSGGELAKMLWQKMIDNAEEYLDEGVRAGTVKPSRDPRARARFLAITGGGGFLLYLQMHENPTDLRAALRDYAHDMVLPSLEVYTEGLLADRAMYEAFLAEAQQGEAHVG

RaaS [2] = molecular target: T2, RaaS (UniProt O86312 1-212); assay: EMSA; 20 nM DNA, 170 nM RaaS; […]; anisotropy: 50 mM Tris-HCl pH 8.5, 150 mM NaCl; temperature not stated; settings: protein: recombinant; tags: 6xHis (pET15-Tev); chain copies: 2; label: 32P; 5' overhang 3 nt on both strands
T2 sequence: T1 sequence

Molecule: labeled RaaS-site oligonucleotide (anisotropy)
- Kd (RaaS [1]): 31 nM

B1: M5 (dsDNA)
DNA 1: GGGATGAACGTACGAAAAATATCCTGAACATGCGTTCAG
DNA 2: GGGCTGAACGCATGTTCAGGATATTTTTCGTACGTTCAT
- binding result (RaaS [2]): no binding

B2: M6 (single repeat) (dsDNA)
DNA 1: GGGTGAACATGCGTTCA
DNA 2: GGGTGAACGCATGTTCA
- binding result (RaaS [2]): no binding

Source: article PMC3993263
